“And” between values parts separate entries of the source, which are not always exact repeats. Identical values can stand only once.
Columns and labels:
[1] = target: biotinylated CCR5 Nt sulfopeptide 2-18
[2] = target: CCR5 on L1.2-CCR5+ cells (Homo sapiens (Human)) (UniProt P51681)
[3] = target: biotinylated CCR5 Nt sulfopeptide 2-18; assay: direct ELISA, biotinylated peptide on streptavidin plate, complex titrated (CD4-IgG2 concentration), anti-human IgG-HRP
[4] = target: biotinylated CCR5 Nt sulfopeptide 2-18; assay: peptide ELISA, gp120/CD4-IgG2 complexes
[5] = target: CCR5 on L1.2-CCR5+ cells (Homo sapiens (Human)) (UniProt P51681); remark: listed apart in the source
[6] = target: biotinylated CCR5 Nt sulfopeptide 10-18; assay: ELISA, biotinylated peptide on streptavidin plate, anti-human IgG-HRP
[7] = target: biotinylated CCR5 Nt sulfopeptide 10-15; assay: as above
[8] = target: biotinylated CCR5 Nt sulfopeptide 8-15; assay: as above
[9] = target: biotinylated CCR5 Nt sulfopeptide 6-16; assay: as above
[10] = target: gp120DH123/CD4-IgG2 complex (HIV-1 DH123); assay: SPR, complex 50 nM over immobilised sulfopeptide 2-18 with MAb (150 mM [sic])
[11] = target: gp120JR-FL/CD4-IgG2 complex (HIV-1 JR-FL)
gp120JR-FL (HIV-1 JR-FL) = gp120JR-FL (HIV-1 JR-FL) (UniProt P20871); assay: cell-based or functional assay

Substance: gp120JR-FL R419A/CD4-IgG2 complex
- fold decrease in binding vs wild-type gp120JR-FL [1]: 5 fold and 10 fold

Substance: gp120JR-FL I322A/CD4-IgG2 complex
- fold decrease in binding vs wild-type gp120JR-FL [1]: > 10 fold

Substance: gp120JR-FL S306A/CD4-IgG2 complex
- fold decrease in binding vs wild-type gp120JR-FL [2]: 5 fold and 10 fold

Substance: gp120DH123/CD4-IgG2 complex
- IC50 [3]: 5 nM
- fold less binding than gp120JR-FL [4]: 5 fold

Substance: gp120JR-FL R469A (from UniProt P20871 32-503)
- fold lower avidity than wild type (CD4-IgG2): 5 fold and 10 fold

Substance: gp120JR-FL F315A/CD4-IgG2 complex
- fold decrease in binding vs wild-type gp120JR-FL [2]: 5 fold and 10 fold

Substance: gp120JR-FL Y316A/CD4-IgG2 complex
- fold decrease in binding vs wild-type gp120JR-FL [2]: 5 fold and 10 fold

Substance: gp120JR-FL R326A/CD4-IgG2 complex
- fold decrease in binding vs wild-type gp120JR-FL [1]: > 10 fold

Substance: gp120JR-FL Q422A/CD4-IgG2 complex
- fold decrease in binding vs wild-type gp120JR-FL [1]: 5 fold and 10 fold

Substance: gp120JR-FL/CD4-IgG2 complex
- IC50 [3]: 1 nM
- m.f.i. [5]: 40 m.f.i.
- fold lower avidity than for sulfopeptide 2-18 [6]: 3 fold
- fold less avid than for sulfopeptide 2-18 [7]: > 10 fold
- fold less avid than for sulfopeptide 2-18 [8]: > 10 fold
- fold less avid than for sulfopeptide 2-18 [9]: > 10 fold

Substance: gp120JR-FL N301A/CD4-IgG2 complex
- fold decrease in binding vs wild-type gp120JR-FL [1]: > 10 fold

Substance: anti-V3 loop MAb 19b (antibody)
- % inhibition of complex binding to sulfopeptide 2-18 [10]: 80%
- % inhibition of complex binding to sulfopeptide 2-18 [11]: > 90%

Substance: gp120JR-FL D324A/CD4-IgG2 complex
- fold decrease in binding vs wild-type gp120JR-FL [1]: > 10 fold

Substance: gp120JR-FL R298A/CD4-IgG2 complex
- fold decrease in binding vs wild-type gp120JR-FL [1]: > 10 fold

Substance: CCR5 Nt peptide S-3/10/14
- inhibition of entry of Nlluc+env- particles pseudotyped with HIV-1JR-FL envelope (luciferase; HeLa-CD4+CCR5+ and U87MG-CD4+CCR5+ cells; peptide 100 µM) (gp120JR-FL (HIV-1 JR-FL)): 50%

Substance: gp120JR-FL I420A/CD4-IgG2 complex
- fold decrease in binding vs wild-type gp120JR-FL [1]: 5 fold and 10 fold

Substance: CCR5 Nt peptide S-10/14
- inhibition of entry of Nlluc+env- particles pseudotyped with HIV-1JR-FL envelope (luciferase; HeLa-CD4+CCR5+ and U87MG-CD4+CCR5+ cells; peptide 100 µM) (gp120JR-FL (HIV-1 JR-FL)): 50%

Substance: gp120JR-FL G310A/CD4-IgG2 complex
- fold decrease in binding vs wild-type gp120JR-FL [2]: 10 fold and 5 fold

Substance: gp120JR-FL K421A/CD4-IgG2 complex
- fold decrease in binding vs wild-type gp120JR-FL [1]: 5 fold and 10 fold

Substance: anti-gp120 MAb 17b (antibody)
- % inhibition of complex binding to sulfopeptide 2-18 [10]: > 90%
- % inhibition of complex binding to sulfopeptide 2-18 [11]: > 90%

Substance: gp120JR-FL R313A/CD4-IgG2 complex
- fold decrease in binding vs wild-type gp120JR-FL [2]: 5 fold and 10 fold

Substance: gp120JR-FL T303A/CD4-IgG2 complex
- fold decrease in binding vs wild-type gp120JR-FL [1]: > 10 fold

Substance: gp120JR-FL P311A/CD4-IgG2 complex
- fold decrease in binding vs wild-type gp120JR-FL [2]: 5 fold and 10 fold

Substance: gp120JR-FL W427A (from UniProt P20871 32-503)
- fold lower avidity than wild type (CD4-IgG2): 5 fold and 10 fold

Substance: gp120JR-FL R444A/CD4-IgG2 complex
- fold decrease in binding vs wild-type gp120JR-FL [1]: 5 fold and 10 fold

Substance: gp120JR-FL R440A (from UniProt P20871 32-503)
- fold lower avidity than wild type (CD4-IgG2): 5 fold and 10 fold

Substance: anti-gp120 MAb 48d (antibody)
- % inhibition of complex binding to sulfopeptide 2-18 [10]: > 90%
- % inhibition of complex binding to sulfopeptide 2-18 [11]: > 90%

Substance: gp120JR-FL I325A/CD4-IgG2 complex
- fold decrease in binding vs wild-type gp120JR-FL [1]: > 10 fold
